From US20240076386A1 (Pfizer, published 2024)
Changes are numbered by the printed parent chain.

T1: cynomolgus monkey E-selectin extracellular domain with 10 His purification tail (cynomolgus monkey, UniProt P16581 22-554 (human entry))
T1 construct: also called cynomolgus E-selectin; truncated cynomolgus monkey E-selectin
T1 chain: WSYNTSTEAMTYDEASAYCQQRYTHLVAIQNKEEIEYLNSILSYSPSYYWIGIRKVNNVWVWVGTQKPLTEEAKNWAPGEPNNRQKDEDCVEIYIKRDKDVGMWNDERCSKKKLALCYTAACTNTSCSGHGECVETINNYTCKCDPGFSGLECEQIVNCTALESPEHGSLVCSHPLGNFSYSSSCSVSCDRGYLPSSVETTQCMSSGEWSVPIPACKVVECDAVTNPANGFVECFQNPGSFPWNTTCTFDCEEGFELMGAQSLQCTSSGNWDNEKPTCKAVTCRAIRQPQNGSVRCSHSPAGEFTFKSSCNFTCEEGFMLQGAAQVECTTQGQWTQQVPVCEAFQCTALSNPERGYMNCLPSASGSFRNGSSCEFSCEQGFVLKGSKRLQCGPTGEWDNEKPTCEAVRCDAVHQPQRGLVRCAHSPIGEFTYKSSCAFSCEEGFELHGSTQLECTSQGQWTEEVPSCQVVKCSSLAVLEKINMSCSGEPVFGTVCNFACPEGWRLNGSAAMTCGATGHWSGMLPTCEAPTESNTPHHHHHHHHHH

T2: human E-selectin coated on the plate of the competition binding ELISA (human, UniProt P16581 22-556, limits assumed)
T2 sequence (looked up): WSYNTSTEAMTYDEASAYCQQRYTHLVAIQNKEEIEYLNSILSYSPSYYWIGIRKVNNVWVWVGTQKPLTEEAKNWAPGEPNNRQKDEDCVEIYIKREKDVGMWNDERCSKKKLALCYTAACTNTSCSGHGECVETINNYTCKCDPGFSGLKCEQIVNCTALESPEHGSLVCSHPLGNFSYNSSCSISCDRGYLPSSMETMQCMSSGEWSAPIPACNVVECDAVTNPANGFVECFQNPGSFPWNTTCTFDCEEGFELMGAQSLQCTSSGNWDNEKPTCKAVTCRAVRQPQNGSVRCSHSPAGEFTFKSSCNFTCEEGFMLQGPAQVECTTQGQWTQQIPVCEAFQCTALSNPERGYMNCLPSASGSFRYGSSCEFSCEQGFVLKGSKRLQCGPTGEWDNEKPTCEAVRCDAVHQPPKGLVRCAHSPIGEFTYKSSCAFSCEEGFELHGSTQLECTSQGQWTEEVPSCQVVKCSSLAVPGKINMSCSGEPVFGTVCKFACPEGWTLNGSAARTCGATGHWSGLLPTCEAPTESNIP

B1: optimized anti-E-selectin antibody 1282 (antibody, human IgG1, kappa, V domains shown)
VH: EVQLVESGGGLVQPGGSLRLSCAASGYAIRSAYMHWVRQAPGKGLEWVARIDPANGNTIYVDSVEGRFTISADNAKNSAYLQMNSLRAEDTAVYYCAMDLYSTSEYWGQGTLVTVSS
VL: DIQMTQSPSSLSASVGDRVTITCKTSQNIERYLNWYQQKPGKAPKLLIYAASSLQSGVPSRFSGSGSGTDFTLTISSLQPEDFATYFCLQDNAWPLTFGQGTKVEIKR
notes: effector-null human IgG1, kappa
B2: optimized anti-E-selectin antibody 1448 (antibody, human IgG1, kappa, V domains shown)
VH: B1 VH with E65K, G66E
VL: B1 VL
notes: as for B1
B3: optimized anti-E-selectin antibody 1444 (antibody, human IgG1, kappa, V domains shown)
VH: B1 VH with E65T
VL: B1 VL
notes: as for B1
B4: optimized anti-E-selectin antibody 1284 (antibody, human IgG1, kappa, V domains shown)
VH: B1 VH with D62E
VL: B1 VL
notes: as for B1

Biological target: T1, cynomolgus monkey E-selectin …
Test: SPR, antibody captured, E-selectin analyte
Experimental: All flow cells were blocked with 1M Ethanolamine-HCl (ETH) for 7 minutes at 10 μL/minute. Final immobilization level of the capture antibody was approximately 10,000 resonance units (RU). The running buffer for immobilization and kinetics was HBS-EP+(10 mM 4-(2-hydroxyethyl)-1-piperazineethanesulfonic acid (HEPES) pH 7.4, 150 mM sodium chloride, 3 mM ethylenediaminetetraacetic acid (EDTA), 0.05% (v/v) Tween-20).
To characterize binding of antibodies to human, cynomolgus monkey, and mouse E-selectin, an antibody was diluted to 0.5 μg/mL in HBS-EP+ and captured by the anti-human IgG immobilized on flow cells 2, 3 and 4 for 30 seconds to 1 minute at a flow rate of 10 μL/minute to achieve a capture level of 70 to 300 RU. Flow cell 1 was used as a reference surface. […] HBS-EP+ buffer cycles collected for each captured antibody were used for double-referencing (Myszka D G. J. Mol. Recognition 1999; 12(5):279-84). At the end of each cycle, the entire anti-IgG surface was regenerated by a 30 second pulse of 3 M MgCl₂ and a 30 second pulse of ionic buffer (1.83 M MgCl₂, 0.92 M Urea, 1.83 M Guanidine HCl, pH 7.4) (Andersson K. Analy. Chem. 1999; 71(13): 2475-81). Kinetic assays were conducted at 25° C. at a collection rate of 10 Hertz (Hz) on a BIAcore™ T200 instrument (GE Healthcare). Rate constants and affinities were determined by fitting the data to a 1:1 binding model in BIAcore™ T200 Evaluation software version 3.0 (GE Healthcare).
This was done by first binding the antibody to immobilized anti-human IgG. After antibody capture, dilutions of the E-selectin proteins were flowed over and the association rate constant (ka), disassociation rate constant (kd), t½, and KD values were determined for binding to human and cynomolgus (Table 26).

| Kd [nM] | koff [s⁻¹] | kon [M⁻¹ s⁻¹] | t½ [s] | Binder |
| --- | --- | --- | --- | --- |
| 78.3 | 0.0176 | 227000 | 39.4 | B1 |
| 67.8 | 0.015 | 222000 | 46.2 | B2 |
| 81.5 | 0.0171 | 211000 | 40.5 | B3 |
| 76.5 | 0.018 | 236000 | 38.5 | B4 |

Biological target: T2, human E-selectin coated on the plate of …
Test: competition ELISA (Biotin-164 competitive ELISA) on plate-coated human E-selectin; competitor: biotinylated antibody 0164, OD450; forced degradation samples T0, T2, T4 weeks at 40 C in Tris, His or Glu buffer
Experimental: To additionally asses stability of the forced degradation samples, the activity of the stressed samples was evaluated in a competition binding ELISA. […] The human E-selectin was stored in PBS with Ca/Mg at 500 μg/mL and was diluted with PBS with Ca/Mg to a concentration of 1 μg/mL. This was added to a 384 well MaxiSorp plate, sealed and incubated at 4° C. with gentle shaking overnight. The next day the reagents in each well were removed, followed by addition of 50 μL of blocking buffer (1% BSA in PBS with Ca/Mg) to each well. The wells were sealed and incubated at room temperature for about 1 hour with gentle shaking.
Next, the wash plate was blocked with 1% BSA with PBST (0.05% Tween) on a […] for 3 cycles using 80 μL for each wash. The plate was tapped on a paper towel to drain. […] The wash step was repeated with 3 cycles of 2 washes. Then, dilute Streptavidin-HRP (˜1/7500 diluted in blocking buffer) was added to each well and the plate was incubated at room temperature with gentle shaking ˜40 minutes to 1 hour. The wash step was again repeated with 3 cycles of 2 washes, tapped dry and followed by the addition of 25 μL of TMB substrate (one component HRP microwell substrate). This was followed by the addition of 25 μL of 0.18 M sulfuric acid to stop the reaction when the color reached saturation (determined by observing the color development). The OD450 measurement of the plate was then read on the Envision plate reader, and the data was analyzed with GraphPad, Prism7.

| IC50 (read off the curve) [nM] | Binder |
| --- | --- |
| ~10 | B1 |
| ~9 | B2 |
| ~10 | B3 |
| ~10 | B4 |
